Laboratory results as given in patent US20220220199A1.

Molecular target: LAG-3 expressed at the surface of Jurkat LAG-3+/NFAT-luc2 effector cells (Promega) (UniProt P18627)
Test: cell-based or functional assay

LAG-3 expressed at the surface of Jurkat LAG-3+/NFAT-luc2 effector cells (Promega), sequence (P18627 23-525 limits assumed): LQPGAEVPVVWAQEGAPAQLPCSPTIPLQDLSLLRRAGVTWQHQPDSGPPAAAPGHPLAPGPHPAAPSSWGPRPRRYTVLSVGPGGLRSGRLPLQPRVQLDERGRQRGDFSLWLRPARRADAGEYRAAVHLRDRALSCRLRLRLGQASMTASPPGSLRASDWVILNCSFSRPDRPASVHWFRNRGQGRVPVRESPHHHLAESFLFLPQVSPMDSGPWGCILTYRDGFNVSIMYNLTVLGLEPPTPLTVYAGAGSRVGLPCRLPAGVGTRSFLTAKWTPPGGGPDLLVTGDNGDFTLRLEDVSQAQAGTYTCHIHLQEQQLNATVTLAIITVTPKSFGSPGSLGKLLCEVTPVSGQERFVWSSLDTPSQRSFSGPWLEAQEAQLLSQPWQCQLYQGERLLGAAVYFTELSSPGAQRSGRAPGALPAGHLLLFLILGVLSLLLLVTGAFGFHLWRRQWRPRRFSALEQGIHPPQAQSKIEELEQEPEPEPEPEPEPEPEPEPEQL

inhibition of luciferase expression (RLU) under an NFAT response element in Jurkat LAG-3+/NFAT-luc2 effector cells stimulated with anti-CD3 (OKT3, 3 ng/ml): 37 ng/mL
Substance: IMP761 (humanized 13E2-human IgG4 Fc antibody)
